These results are taken from PMC6370856, “Peptidyl prolyl cis/trans isomerase activity on the cell surface correlates with extracellular matrix development” (Communications Biology, 2019).

The nature of series [1]: PPIase activity of His-CypB immobilized on Ni-NTA silica. Format: biochemical. To be noted: 25 pmol immobilized on Ni-NTA silica showed a similar activity to 1 pmol free control. The method, then: Ten microliters of His-CypB (2.5 µM, 2 µM, 1.5 µM, and 1 µM) was incubated with 10 µL of settled Ni-NTA macroporous silica (Ni-NTA Spin Kit; Qiagen) for 30 min at 0 °C. Subsequently, 80 µL of HEPES buffer was added and incubated for another 10 min with gentle shaking. The silica was precipitated by gravity for 10 min. Eighty microliters were taken from the supernatant and measured along with the silica fraction (the remaining 20 µL) for PPIase activity. The amounts of CypB in the wells were 25, 20, 15, and 10 pmol. Additionally, the activity of 10 µL of 100 nM His-CypB in solution was measured. Three independent experiments were performed. The result is shown in Supplementary Fig. 9.

In series [2] the test system is Jurkat cells. The experiment in a line: Stability of DNA-conjugated compounds under Jurkat cell treatment (LC/MS). Format: in vitro ADME. To be noted: CsA-DNA 500 nM, SLF-DNA 1000 nM, two independent experiments. The method, then: A designed concentration of DNA-conjugated compounds (30 µL in PBS) was incubated with 30 µL of PBS or the cell on ice for 10 min, then 20 min at 37 °C, which is much longer then the viscosity assay time. All the samples were centrifuged at 1000 rpm for 3 min, and then, 30 µL of the supernatant was transferred to MS tube for LC/MS analysis (Supplementary Fig. 4).

Series [3] deals with Jurkat cells. The experiment in a line: Cellular uptake of TAMRA compounds by Jurkat cells (flow cytometry). Format: cell-based. As to conditions: 100 nM TAMRA compounds, 1 and 24 hours, compared with Cs9-TAMRA. The method, then: A final concentration of 100 nM DNA-conjugated TAMRA compounds and Cs9TAMRA was incubated with Jurkat cells for 1 h or 24 h, the cells were pelleted by centrifugation at 1000 rpm for 5 min, the pellet was washed one time with fluorescent-activated cell sorting (FACS) buffer (PBS with 1% bovine serum albumin), and resuspended in FACS buffer. BD FACS Canto™ II Flow Cytometer was used to analyze the uptake of these compounds by Jurkat cells (Supplementary Fig. 5).
(In flow cytometry, cells or beads pass a laser one at a time.)

For series [4], the system named is mixture of Jurkat T lymphocyte and the plasma protein fibrinogen. The experiment in a line: Viscosity/shear rate measurement of Jurkat cells in fibrinogen solution. The class given is cell-based. The text has this:
Since PPIases can catalyze the dynamic rearrangement of the dense ECM polymer network, we speculated that PPIases could also affect the dynamic interaction between cells and the ECM. Probing the influence of transient prolyl isomerization on cell–ECM interaction is difficult. Studying cell adhesion by the treatment of PPIase inhibitors cannot distinguish extracellular and intracellular factors as well as receptor-mediated signaling due to the long assay time. In order to reflect the highly dynamic process, we measured the viscosity of plasma protein solution with cells. Blood is a shear-thinning non-Newtonian fluid, and its viscosity is largely affected by the interaction between cells and plasma proteins, for example, the coagulation process. We investigated whether the catalyzed isomerization could also influence the interaction between blood cells and plasma proteins, thus affecting the viscosity. We performed viscosity/shear rate measurements using a mixture of Jurkat T lymphocyte and the plasma protein fibrinogen.
The machine used for viscosity is the same as for stiffness measurements. To 30 µL of 4 mg mL^−1 fibrinogen, an equal volume of Jurkat cells (8 × 10^7 mL^−1 in PBS, washed two times with PBS before used; Jurkat cells ocupated around 20% of the volume) was added. The mixture was pipetted up and down six times, kept on ice for 10 min, and then transferred to the rheometer plater (25 °C) for measurements. The plate temperature was raised to 37 °C. The measurement was performed by increasing shear rate ramp liner from 100 to 1000 s^−1. Hundred data points were collected during the measurements. For each condition, two independent experiments were performed (Fig. 1c and Supplementary Fig. 3).

Turning to “His-CypB: recombinant His-tagged cyclophilin B, immobilized on Ni-NTA macroporous silica”, the “catalytic activity of immobilized enzyme versus free enzyme in solution” value in series [1] is “diminished catalytic activity”.

On to “CsA-DNA: CsA-conjugated oligonucleotide, 5-amino modifier C6-CTCTTCCGATCTC (chemistry not fully specified)”, for which the “area of UV absorbance at 260 nm in supernatant” value in the series with Jurkat cells [2] (Jurkat cell 4 X 107/mL treatment) is listed as 3054±270; in the series with Jurkat cells [2] (PBS control), 2218±11. For the same substance, the “cell entry / uptake by Jurkat cells” value in the series with Jurkat cells [3] was “do not enter into cells”. Also, the “effect on viscosity of cell/fibrinogen mixture” value in series [4] (Jurkat T lymphocyte and fibrinogen, shear rate 100-1000 s^-1) is “reduced viscosity”. Further, the “Viscosity Mean” value in series [4] (shear rate 102 s-1) came to 3.276 mPa·s; in series [4] (shear rate 112 s-1), 2.725 mPa·s; in series [4] (shear rate 122 s-1), 2.3889 mPa·s; in series [4] (shear rate 132 s-1), 2.173 mPa·s; in series [4] (shear rate 142 s-1) it was 1.975 mPa·s; in series [4] (shear rate 152 s-1), 1.931 mPa·s. The “Viscosity Mean” value in series [4] (shear rate 162 s-1) was found to be 1.858 mPa·s; in series [4] (shear rate 173 s-1), 1.71 mPa·s; in series [4] (shear rate 183 s-1), 1.682 mPa·s; in series [4] (shear rate 193 s-1), 1.63 mPa·s; in series [4] (shear rate 203 s-1) it was 1.558 mPa·s; in series [4] (shear rate 253 s-1), 1.438 mPa·s. The “Viscosity Mean” value in series [4] (shear rate 263 s-1) came out at 1.4013 mPa·s; in series [4] (shear rate 284 s-1), 1.361 mPa·s; in series [4] (shear rate 304 s-1), 1.331 mPa·s; in series [4] (shear rate 334 s-1), 1.301 mPa·s; in series [4] (shear rate 344 s-1) it was 1.29 mPa·s; in series [4] (shear rate 354 s-1) it was 1.29 mPa·s. For the same substance, the “Viscosity Mean” value stood at 1.269 mPa·s in series [4] (shear rate 364 s-1); 1.245 mPa·s in series [4] (shear rate 374 s-1); 1.237 mPa·s in series [4] (shear rate 384 s-1); 1.237 mPa·s in series [4] (shear rate 395 s-1); 1.212 mPa·s in series [4] (shear rate 415 s-1); 1.198 mPa·s in series [4] (shear rate 425 s-1). Besides, the “Viscosity Mean” value in series [4] (shear rate 475 s-1) was 1.142 mPa·s; in series [4] (shear rate 526 s-1), 1.138 mPa·s; in series [4] (shear rate 556 s-1), 1.137 mPa·s; in series [4] (shear rate 576 s-1), 1.139 mPa·s; in series [4] (shear rate 909 s-1) it was 0.9613 mPa·s; in series [4] (shear rate 919 s-1), 1.096 mPa·s. In addition, the “Viscosity Mean” value in series [4] (shear rate 929 s-1) is on record as 0.9906 mPa·s; in series [4] (shear rate 939 s-1), 0.9737 mPa·s; in series [4] (shear rate 980 s-1), 0.896 mPa·s; in series [4] (shear rate 990 s-1), 0.87 mPa·s; in series [4] (shear rate 1000 s-1) it was 0.9112 mPa·s.
